B1: recombinant human MBL-Associated Serine Protease-1 (rMASP-1) (protein)
chain: HTVELNNMFGQIQSPGYPDSYPSDSEVTWNITVPDGFRIKLYFMHFNLESSYLCEYDYVKVETEDQVLATFCGRETTDTEQTPGQEVVLSPGSFMSITFRSDFSNEERFTGFDAHYMAVDVDECKEREDEELSCDHYCHNYIGGYYCSCRFGYILHTDNRTCRVECSDNLFTQRTGVITSPDFPNPYPKSSECLYTIELEEGFMVNLQFEDIFDIEDHPEVPCPYDYIKIKVGPKVLGPFCGEKAPEPISTQSHSVLILFHSDNSGENRGWRLSYRAAGNECPELQPPVHGKIEPSQAKYFFKDQVLVSCDTGYKVLKDNVEMDTFQIECLKDGTWSNKIPTCKIVDCRAPGELEHGLITFSTRNNLTTYKSEIKYSCQEPYYKMLNNNTGIYTCSAQGVWMNKVLGRSLPTCLPVCGLPKFSRKLMARIFNGRPAQKGTTPWIAMLSHLNGQPFCGGSLLGSSWIVTAAHCLHQSLDPEDPTLRDSDLLSPSDFKIILGKHWRLRSDENEQHLGVKHTTLHPQYDPNTFENDVALVELLESPVLNAFVMPICLPEGPQQEGAMVIVSGWGKQFLQRFPETLMEIEIPIVDHSTCQKAYAPLKKKVTRDMICAGEKEGGKDACAGDSGGPMVTLNRERGQWYLVGTVSWGDDCGKKDRYGVYSYIHHNKDWIQRVTGVRN
B2: recombinant human MBL-Associated Serine Protease-2 (rMASP-2) (protein)
chain: TPLGPKWPEPVFGRLASPGFPGEYANDQERRWTLTAPPGYRLRLYFTHFDLELSHLCEYDFVKLSSGAKVLATLCGQESTDTERAPGKDTFYSLGSSLDITFRSDYSNEKPFTGFEAFYAAEDIDECQVAPGEAPTCDHHCHNHLGGFYCSCRAGYVLHRNKRTCSALCSGQVFTQRSGELSSPEYPRPYPKLSSCTYSISLEEGFSVILDFVESFDVETHPETLCPYDFLKIQTDREEHGPFCGKTLPHRIETKSNTVTITFVTDESGDHTGWKIHYTSTAQPCPYPMAPPNGHVSPVQAKYILKDSFSIFCETGYELLQGHLPLKSFTAVCQKDGSWDRPMPACSIVDCGPPDDLPSGRVEYITGPGVTTYKAVIQYSCEETFYTMKVNDGKYVCEADGFWTSSKGEKSLPVCEPVCGLSARTTGGRIYGGQKAKPGDFPWQVLILGGTTAAGALLYDNWVLTAAHAVYEQKHDASALDIRMGTLKRLSPHYTQAWSEAVFIHEGYTHDAGFDNDIALIKLNNKVVINSNITPICLPRKEAESFMRTDDIGTASGWGLTQRGFLARNLMYVDIPIVDHQKCTAAYEKPPYPRGSVTANMLCAGLESGGKDSCRGDSGGALVFLDSETERWFVGGIVSWGSMNCGEAGQYGVYTKVINYIPWIENIISDF
B3: recombinant human MBL-Associated Serine Protease-3 (rMASP-3) (protein)
chain: HTVELNNMFGQIQSPGYPDSYPSDSEVTWNITVPDGFRIKLYFMHFNLESSYLCEYDYVKVETEDQVLATFCGRETTDTEQTPGQEVVLSPGSFMSITFRSDFSNEERFTGFDAHYMAVDVDECKEREDEELSCDHYCHNYIGGYYCSCRFGYILHTDNRTCRVECSDNLFTQRTGVITSPDFPNPYPKSSECLYTIELEEGFMVNLQFEDIFDIEDHPEVPCPYDYIKIKVGPKVLGPFCGEKAPEPISTQSHSVLILFHSDNSGENRGWRLSYRAAGNECPELQPPVHGKIEPSQAKYFFKDQVLVSCDTGYKVLKDNVEMDTFQIECLKDGTWSNKIPTCKIVDCRAPGELEHGLITFSTRNNLTTYKSEIKYSCQEPYYKMLNNNTGIYTCSAQGVWMNKVLGRSLPTCLPECGQPSRSLPSLVKRIIGGRNAEPGLFPWQALIVVEDTSRVPNDKWFGSGALLSASWILTAAHVLRSQRRDTTVIPVSKEHVTVYLGLHDVRDKSGAVNSSAARVVLHPDFNIQNYNHDIALVQLQEPVPLGPHVMPVCLPRLEPEGPAPHMLGLVAGWGISNPNVTVDEIISSGTRTLSDVLQYVKLPVVPHAECKTSYESRSGNYSVTENMFCAGYYEGGKDTCLGDSGGAFVIFDDLSQRWVVQGLVSWGGPEECGSKQVYGVYTKVSNYVDWVWEQMGLPQSVVEPQVER

What was measured:
[1] = biological target: recombinant, full-length, non-tagged mannose-binding lectin (rMBL), P11226
[2] = biological target: recombinant human Ficolin-3 (rFicolin-3), O75636
Sequence of recombinant human Ficolin-3 (rFicolin-3), O75636 (O75636 24-299): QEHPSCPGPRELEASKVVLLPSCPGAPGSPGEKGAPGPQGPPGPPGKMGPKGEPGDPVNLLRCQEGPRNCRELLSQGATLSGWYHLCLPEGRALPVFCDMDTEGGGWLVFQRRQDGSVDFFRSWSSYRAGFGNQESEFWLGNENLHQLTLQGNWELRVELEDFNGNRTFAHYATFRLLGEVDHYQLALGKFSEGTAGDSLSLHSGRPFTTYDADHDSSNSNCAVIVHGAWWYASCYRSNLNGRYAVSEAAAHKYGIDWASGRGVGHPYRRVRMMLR

Sequence of recombinant, full-length, non-tagged mannose-binding lectin (rMBL), P11226 (P11226 21-248): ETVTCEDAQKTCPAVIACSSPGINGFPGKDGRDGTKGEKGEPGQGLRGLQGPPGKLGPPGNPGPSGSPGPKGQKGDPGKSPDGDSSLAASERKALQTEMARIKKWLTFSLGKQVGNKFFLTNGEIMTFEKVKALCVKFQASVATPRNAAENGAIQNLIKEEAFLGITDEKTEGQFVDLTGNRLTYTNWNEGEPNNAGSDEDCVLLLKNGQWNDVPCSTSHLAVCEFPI

Protein	activation of C3 and C4 [1]	C4 deposition (AcBSA/rFicolin-3, Ficolin-3 deficient serum) [2]	C4 deposition (mannan/rMBL, MBL deficient serum) [1]
B1	MASP-1 were able to activate both the C3 and C4 complement proteins	–	–
B2	MASP-2 were able to strongly activate both the C3 and C4 complement proteins	Application of rMASP-2 resulted in a strong positive dose dependent enhancement of the C4 deposition via both the Ficolin-3 and MBL activation pathways	Application of rMASP-2 resulted in a strong positive dose dependent enhancement of the C4 deposition via both the Ficolin-3 and MBL activation pathways
B3	MASP-3 were able to inhibit the activation of both the C3 and C4 complement proteins	–	–

— patent US20130217616
